Earlier results in article PMC5811428.

Biological target: C5aR (Homo sapiens) (UniProt P21730)
Sequence of UniProt P21730 (P21730 whole entry): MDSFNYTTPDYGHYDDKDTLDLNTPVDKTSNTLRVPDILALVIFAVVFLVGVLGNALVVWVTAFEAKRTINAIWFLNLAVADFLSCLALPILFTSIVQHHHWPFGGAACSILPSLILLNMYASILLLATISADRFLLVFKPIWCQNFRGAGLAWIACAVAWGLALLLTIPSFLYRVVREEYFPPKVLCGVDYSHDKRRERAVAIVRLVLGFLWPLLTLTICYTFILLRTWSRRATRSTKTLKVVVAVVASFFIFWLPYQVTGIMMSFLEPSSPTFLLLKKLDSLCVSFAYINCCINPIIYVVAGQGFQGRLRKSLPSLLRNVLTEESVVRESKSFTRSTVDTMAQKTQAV

Kd: 150 µM
Substance: hC5a C-terminal peptide CT peptide (from UniProt P01031)
